Experimental data: patent US20250376529A1 (Amgen, published 2025)

T1: Rhesus GIPR (rhesus, UniProt F7E1R9 22-466)
T1 sequence: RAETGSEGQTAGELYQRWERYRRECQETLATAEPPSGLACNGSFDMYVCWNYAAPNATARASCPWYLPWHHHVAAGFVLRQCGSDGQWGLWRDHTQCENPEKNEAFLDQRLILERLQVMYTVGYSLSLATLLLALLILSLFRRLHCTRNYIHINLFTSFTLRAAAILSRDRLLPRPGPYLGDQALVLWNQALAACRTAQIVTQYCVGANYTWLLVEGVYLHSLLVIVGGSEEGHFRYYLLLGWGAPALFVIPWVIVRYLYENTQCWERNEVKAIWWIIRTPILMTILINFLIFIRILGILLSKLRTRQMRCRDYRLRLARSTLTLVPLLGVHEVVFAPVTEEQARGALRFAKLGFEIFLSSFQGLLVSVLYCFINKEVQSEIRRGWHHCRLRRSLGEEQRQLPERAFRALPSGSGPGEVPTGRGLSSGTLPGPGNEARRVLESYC


biological target: T1, Rhesus GIPR; test: cell-based or functional assay

| Binder | Rhesus GIPR CAMP Assay (Conc. mAb @ 60% Inhibition in nM) [nM] |
| --- | --- |
| 17H11.004.001 (antibody, human IgG1, kappa, N297G, V domains shown, also called iPS:359621; iPS:359623) VH: QVQLQESGPGLVKPSETLSLTCTVSGGSISSYYWSWIRQPAGKGLEWIGRIYTSGSTNYNPSLKSRVTMSIDTSKNQFSLKLNSVTAADTAVYYCARDVAVAGFDYWGQGTLVTVSS VL: DIQMTQSPSSVSASVGDRVTITCRASQGLIIWLAWYQQKPGKAPKLLIYAASSLQSGVPSRFSGSGSGTDFTLTISSLQPEDFATYYCQQTNSFPPTFGQGTKVEIKR | 0.22 |
| 18E3 (antibody, human IgG1, kappa, N297G) heavy: not shown light: EIVLTQSPGTLSLSPGERATLSCRASQSISYSYLAWYQQKPGQAPRLLIYGASSRATGIPDRFSGSGSGTDFTLTISRQEPDDFAVYYCQQYGSSPLTFGGGTKVEIKRTVAAPSVFIFPPSDEQLKSGTASVVCLLNNFYPREAKVQWKVDNALQSGNSQESVTEQDSKDSTYSLSSTLTLSKADYEKHKVYACEVTHQGLSSPVTKSFNRGEC | 0.25 |
| 18E3.003 (antibody, human IgG1, kappa, N297G) heavy: not shown light: EIVLTQSPGTLSLSPGERATLSCRASQSISYSYLAWYQQKPGQAPRLLIYGASSRATGIPDRFSGSGSGTDFTLTISRQEPDDFAVYYCQQYGSSPLTFGGGTKVEIKRTVAAPSVFIFPPSDEQLKSGTASVVCLLNNFYPREAKVQWKVDNALQSGNSQESVTEQDSKDSTYSLSSTLTLSKADYEKHKVYACEVTHQGLSSPVTKSFNRGEC | 0.12 |
| 18E3.002 (antibody, human IgG1, kappa, N297G) heavy: not shown light: EIVLTQSPGTLSLSPGERATLSCRASQSISYSYLAWYQQKPGQAPRLLIYGASSRATGIPDRFSGSGSGTDFTLTISRLEPDDFAVYYCQQYGSSPLTFGGGTKVEIKRTVAAPSVFIFPPSDEQLKSGTASVVCLLNNFYPREAKVQWKVDNALQSGNSQESVTEQDSKDSTYSLSSTLTLSKADYEKHKVYACEVTHQGLSSPVTKSFNRGEC | 0.16 |
| 18E3.004 (antibody, human IgG1, kappa, N297G) heavy: not shown light: EIVLTQSPGTLSLSPGERATLSCRASQSISYSYLAWYQQKPGQAPRLLIYGASSRATGIPDRFSGSGSGTDFTLTISRLEPDDFAVYYCQQYGSSPLTFGGGTKVEIKRTVAAPSVFIFPPSDEQLKSGTASVVCLLNNFYPREAKVQWKVDNALQSGNSQESVTEQDSKDSTYSLSSTLTLSKADYEKHKVYACEVTHQGLSSPVTKSFNRGEC | 0.06 |
| 2G10_LC1.003 (antibody, human IgG1, kappa, N297G, V domains shown) VH: not shown VL: EIVMTQSPATLSVSPGERATLSCRASQSVSSNLAWYQQKPGQAPRLLIYGAATRATGIPARFSGSGSGTEFTLTISSLQSEDFAVYYCQQYNNWPLTFGGGTKVEIKR | 0.85 |
| 2G10_LC1.005 (antibody, human IgG1, kappa, N297G, V domains shown) VH: not shown VL: EIVMTQSPATLSVSPGERATLSCRASQSVSSNLAWYQQKPGQAPRLLIYGAATRATGIPARFSGSGSGTEFTLTISSLQSEDFAVYYCQQYNNWPLTFGGGTKVEIKR | 0.43 |
| 2G10_LC1.008 (antibody, human IgG1, kappa, N297G, V domains shown) VH: not shown VL: EIVMTQSPATLSVSPGERATLSCRASQSVSSNLAWYQQKPGQAPRLLIYGAATRATGIPARFSGSGSGTEFTLTISSLEPEDFAVYYCQQYNNYPLTFGGGTKVEIKR | 4 |
| 2G10_LC1 (antibody, human IgG1, kappa, N297G, V domains shown) VH: QVQLVESGGGVVQPGRSLRLSCAASGFTFSNYGMHWVRQAPGEGLEWVAAIWFDGSDKYYADSVKGRFTISRDNSKNTLYLQMNSLRAEDTAVYYCARDQAIFGVVPDYWGQGTLVTVSS VL: EIVMTQSPATLSVSPGERATLSCRASQSVSSNLAWYQQKPGQAPRLLIYGAATRATGIPARVSGSGSGTEFTLTISSLQSEDFAVYYCQQYNNWPLTFGGGTKVEIKR | 0.67 |
| 2G10_LC1.004 (antibody, human IgG1, kappa, N297G, V domains shown) VH: QVQLVESGGGVVQPGRSLRLSCAASGFTFSNYGMHWVRQAPGEGLEWVAAIWFDASDKYYADSVKGRFTISRDNSKNTLYLQMNSLRAEDTAVYYCARDQAIFGVVPDYWGQGTLVTVSS VL: EIVMTQSPATLSVSPGERATLSCRASQSVSSNLAWYQQKPGQAPRLLIYGAATRATGIPARFSGSGSGTEFTLTISSLQSEDFAVYYCQQYNNWPLTFGGGTKVEIKR | 0.58 |
| 2G10_LC1.007 (antibody, human IgG1, kappa, N297G, V domains shown) VH: not shown VL: EIVMTQSPATLSVSPGERATLSCRASQSVSSNLAWYQQKPGQAPRLLIYGAATRATGIPARFSGSGSGTEFTLTISSLEPEDFAVYYCQQYNNFPLTFGGGTKVEIKR | 16.3 |
| 2G10_LC1.010 (antibody, human IgG1, kappa, N297G, V domains shown) VH: not shown VL: EIVMTQSPATLSVSPGERATLSCRASQSVSSNLAWYQQKPGQAPRLLIYGAATRATGIPARFSGSGSGTEFTLTISSLEPEDFAVYYCQQYNNWPLTFGGGTKVEIKR | 0.86 |
| 2G10_LC1.009 (antibody, human IgG1, kappa, N297G, V domains shown) VH: not shown VL: EIVMTQSPATLSVSPGERATLSCRASQSVSSNLAWYQQKPGQAPRLLIYGAATRATGIPARFSGSGSGTEFTLTISSLEPEDFAVYYCQQYNNWPLTFGGGTKVEIKR | 0.71 |
| 18F2.010 (antibody, human IgG1, kappa, N297G, V domains shown) VH: QVQLVESGGGVVQPGRSLRLSCAASGFTFSNFGMHWVRQAPGKGLEWVAVIWYDASNENYADSVKGRFTISRDNSKNTLYLQMNSLRAADTAVYYCARDGTIFGVVLGDYWGQGTLVTVSS VL: DIQMTQSPSSLSASIGDRVTITCRASQDLRNYLGWYQQKPGKAPKLLIYGASSLQSGVPSRFSGSGSGTEFTLTISSLQPEDFATYYCLQHNNYPFTFGPGTKVDIKR | 1.75 |
| 4H9.004.006 (antibody, human IgG1, kappa, N297G, V domains shown) VH: not shown VL: DIQMTQSPSSLSASVGDRVTITCRASQGIRNELGWYQQKPGKAPKLLIYGASSLQSGVPSRFSGSGSGTEFTLTISSLQPEDFVTYYCLQHNSYPFTFGQGTKVDVKR | 0.35 |
| 4H9.004.005 (antibody, human IgG1, kappa, N297G, V domains shown) VH: not shown VL: DIQMTQSPSSLSASVGDRVTITCRASQGIRNELGWYQQKPGKAPKRLIYGASSLQSGVPSRFSGSGSGTEFTLTISSLQPEDFVTYYCLQHNSYPFTFGQGTKVDVKR | 0.65 |
| 6A5.004.007 (antibody, human IgG1, kappa, N297G, V domains shown) VH: QVQLVESGGGVVQPGRSLRLSCAASGFSFSSYGMHWVRQPPGKGLEWVAAIWYDANNKYYADAVKGRFTISRDSSKNTLYLQMNSLRAEDTAVYYCARDRTIFGVVLEYWGQGTLVTVSS VL: not shown | 0.61 |
| 6A5.004.008 (antibody, human IgG1, kappa, N297G, V domains shown) VH: QVQLVESGGGVVQPGRSLRLSCAASGFSFSSYGMHWVRQPPGKGLEWVAAIWYDGNNKYYADAVKGRFTISRDSSKNTLYLQMNSLRAEDTAVYYCARDRTIFGVVLEYWGQGTLVTVSS VL: DIQMTQSPSSLSASVGDRVTITCQASQDITNYLNWYQQKPGKAPKLLIYDASNLEPGVPSRFSGSGSGTDFTLTISSLQPEDFATYYCQQYDDLFTFGPGTKVDIKR | 0.82 |
| 5G12.006.001 (antibody, human IgG1, kappa, N297G) heavy: not shown light: DIQLTQSPSSLSASVGDRVTITCRASQTISRFLNWYQQKPGKAPELLIYVASSLQSGVPSRFSGSGSGTDFTLTISSLQPEDFATYYCQQSYSTLISFGQGTKLEIKRTVAAPSVFIFPPSDEQLKSGTASVVCLLNNFYPREAKVQWKVDNALQSGNSQESVTEQDSKDSTYSLSSTLTLSKADYEKHKVYACEVTHQGLSSPVTKSFNRGEC | 0.9 |
| 5G12.005.001 (antibody, human IgG1, kappa, N297G, V domains shown) VH: not shown VL: DIQLTQSPSSLSASVGDRVTITCRASQTISRFLNWYQQKPGKAPKLLIYVASSLQSGVPSRFSGSGSGTDFTLTISSLQPEDFATYYCQQSYSTLLSFGQGTKLEIKR | 10.9 |
| 5G12.006 (antibody, human IgG1, kappa, N297G, V domains shown) VH: QVQLVESGGGVVQPGRSLRLSCTASGFTFSSYGIHWVRQAPGKGLEWVAVIWYDGSNKFHADSVKGRFTISRDNSKNTLYLQMNSLRAEDSAMYFCARGKVAGMPEAFEIWGQGTKVTVSS VL: DIQLTQSPSSLSASVGDRVTITCRASQTISRFLNWYQQKPGKAPELLIYVASSLQSGVPSRFSGSGSGTDFTLTISSLQPEDFATYYCQQSYSTLISFGQGTKLEITR | 0.8 |
| 5G12.006.006 (antibody, human IgG1, kappa, N297G, V domains shown) VH: not shown VL: DIQLTQSPSSLSASVGDRVTITCRASQTISRFLNWYQQKPGKAPELLIYVASSLQSGVPSRFSGSGSGTDFTLTISSLQPEDFATYYCQQSYSTLISFGQGTKLEIKR | 0.9 |
| 5G12.006.002 (antibody, human IgG1, kappa, N297G, V domains shown) VH: not shown VL: DIQLTQSPSSLSASVGDRVTITCRASQTISRFLNWYQQKPGKAPELLIYVASSLQSGVPSRFSGSGSGTDFTLTISSLQPEDFATYYCQQSYSTLISFGQGTKLEIKR | 1 |
| 5G12.006.005 (antibody, human IgG1, kappa, N297G, V domains shown) VH: QVQLVESGGGVVQPGRSLRLSCAASGFTFSSYGIHWVRQAPGKGLEWVAVIWYDASNKFHADSVKGRFTISRDNSKNTLYLQMNSLRAEDSAMYFCARGKVAGMPEAFEIWGQGTKVTVSS VL: DIQLTQSPSSLSASVGDRVTITCRASQTISRFLNWYQQKPGKAPELLIYVASSLQSGVPSRFSGSGSGTDFTLTISSLQPEDFATYYCQQSYSTLISFGQGTKLEIKR | 5.3 |
